Molecular target: the molecule itself
Assay: single-molecule pull-down

B1: mGluR2-GFP (receptor)
chain: EGPAKKVLTLEGDLVLGGLFPVHQKGGPAEECGPVNEHRGIQRLEAMLFALDRINRDPHLLPGVRLGAHILDSCSKDTHALEQALDFVRASLSRGADGSRHICPDGSYATHSDAPTAVTGVIGGSYSDVSIQVANLLRLFQIPQISYASTSAKLSDKSRYDYFARTVPPDFFQAKAMAEILRFFNWTYVSTVASEGDYGETGIEAFELEARARNICVATSEKVGRAMSRAAFEGVVRALLQKPSARVAVLFTRSEDARELLAATQRLNASFTWVASDGWGALESVVAGSERAAEGAITIELASYPISDFASYFQSLDPWNNSRNPWFREFWEERFHCSFRQRDCAAHSLRAVPFEQESKIMFVVNAVYAMAHALHNMHRALCPNTTHLCDAMRPVNGRRLYKDFVLNVKFDAPFRPADTDDEVRFDRFGDGIGRYNIFTYLRAGSGRYRYQKVGYWAEGLTLDTSFIPWASPSAGPLPASRCSEPCLQNEVKSVQPGEVCCWLCIPCQPYEYRLDEFTCADCGLGYWPNASLTGCFELPQEYIRWGDAWAVGPVTIACLGALATLFVLGVFVRHNATPVVKASGRELCYILLGGVFLCYCMTFVFIAKPSTAVCTLRRLGLGTAFSVCYSALLTKTNRIARIFGGAREGAQRPRFISPASQVAICLALISGQLLIVAAWLVVEAPGTGKETAPERREVVTLRCNHRDASMLGSLAYNVLLIALCTLYAFKTRKCPENFNEAKFIGFTMYTTCIIWLAFLPIFYVTSSDYRVQTTTMCVSVSLSGSVVLGCLFAPKLHIILFQPQKNVVSHRAPTSRFGSAAPRASANLGQGSGSQFVPTVCNGREVVDSTTSSL
  stoichiometry N: 2
